{
  "source": "paper PMC10427645",
  "about": "“Extracellular Pgk1 interacts neural membrane protein enolase-2 to improve the neurite outgrowth of motor neurons” (Communications Biology, 2023)",
  "binders": {"B1": {"name": "recombinant mouse Pgk1 fused with Flag (Pgk1-Flag) (natural protein, UniProt P09411 1-417, looked up)", "chain": "MSLSNKLTLDKLDVKGKRVVMRVDFNVPMKNNQITNNQRIKAAVPSIKFCLDNGAKSVVLMSHLGRPDGVPMPDKYSLEPVAAELKSLLGKDVLFLKDCVGPEVENACANPAAGTVILLENLRFHVEEEGKGKDASGNKVKAEPAKIDAFRASLSKLGDVYVNDAFGTAHRAHSSMVGVNLPQKAGGFLMKKELNYFAKALESPERPFLAILGGAKVADKIQLINNMLDKVNEMIIGGGMAFTFLKVLNNMEIGTSLYDEEGAKIVKDLMSKAEKNGVKITLPVDFVTADKFDENAKTGQATVASGIPAGWMGLDCGTESSKKYAEAVGRAKQIVWNGPVGVFEWEAFARGTKSLMDEVVKATSRGCITIIGGGDTATCCAKWNTEDKVSHVSTGGGASLELLEGKVLPGVDALSNV", "notes": "phosphoglycerate kinase 1 (Pgk1), mouse, full-length coding region (1-417), cDNA cloned from NSC34 and C2C12 cells; also called extracellular Pgk1; phosphoglycerate kinase 1; source: Sf21 insect cells (Baculovirus expression system), purified (anti-Flag beads, eluted with 3x Flag peptide)"}},
  "target": "T1, Eno2-Myc (mouse Enolase-2 fused with Myc) (mouse, UniProt P17183 1-434)",
  "T1 construct": "Pgk1-Flag was added to the medium of Sf21 cells expressing this protein, followed by BS3 cross-linking; source: Sf21 insect cells (Baculovirus, pVL-Eno2-Myc), expressed on or in the cells, not purified",
  "T1 sequence (P17183 whole entry, the tested form may be a part)": "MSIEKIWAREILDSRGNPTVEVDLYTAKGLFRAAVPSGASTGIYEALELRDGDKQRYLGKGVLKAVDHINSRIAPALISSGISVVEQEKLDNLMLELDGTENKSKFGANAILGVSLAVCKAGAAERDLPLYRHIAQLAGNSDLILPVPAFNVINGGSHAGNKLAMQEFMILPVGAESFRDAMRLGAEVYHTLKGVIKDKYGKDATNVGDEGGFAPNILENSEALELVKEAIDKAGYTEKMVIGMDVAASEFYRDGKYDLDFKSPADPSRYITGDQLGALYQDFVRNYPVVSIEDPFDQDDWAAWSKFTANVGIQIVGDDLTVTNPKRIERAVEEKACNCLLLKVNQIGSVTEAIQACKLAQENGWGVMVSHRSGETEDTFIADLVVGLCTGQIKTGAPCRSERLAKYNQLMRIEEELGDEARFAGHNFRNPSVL",
  "assay": "cross-linking + co-IP; cell surface crosslinking-IP: Sf21 cells expressing the Myc-tagged protein incubated 2 h with recombinant Flag-tagged Pgk1 or fragment in the medium, BS3 cross-linking, lysates immunoprecipitated with anti-Flag or anti-Myc beads, western blot with anti-Flag and anti-Myc",
  "conditions": "one partner purified",
  "data": [
    {"binder": "B1", "values": [
      {"measurement": "fold, intensity ratio of Flag relative to Myc in the Eno2-Myc plus Pgk1-Flag group against the Eno2-Myc group (set as 1)", "result": 8, "unit": "fold"},
      {"measurement": "fold, intensity ratio of Myc relative to Flag in the Pgk1-Flag plus Eno2-Myc group against the Pgk1-Flag group (set as 1)", "result": 14, "unit": "fold"}
    ]}
  ]
}
